The values that follow come from US7507716B2, “Method for treating pain with prolactin antagonists” (Board of Regents, The University of Texas System, priority 2005, dated 2009).

The subject of one test is TG neurons. Put plainly: Patch clamp, heat-evoked currents (Iheat). It is filed as cell-based, rat. As to conditions: neurons from intact female rats. On the procedure:
TRPV1 is known to be activated by noxious heat (>42° C). Furthermore, this effect is itself sensitized by hyperalgesic agents such as bradykinin (Cesare et al., 1999) and NGF (Chuang et al., 2001; Zhu et al., 2004). To determine whether PRL sensitizes heat-evoked currents (Iheat), the effect that pre-treatment of intact female rat TG neurons with PRL has on Iheat was examined. […] Data are presented as mean±SEM (n=8-12/group, ***=p<0.001 versus vehicle control; two-tailed unpaired T test). […] (FIG. 6B) and 48° C. (FIG. 6C). Data are presented as mean±SEM (n=8-12/group, ***=p<0.001 versus vehicle control; two-tailed unpaired T test). FIG. 6D and FIG. 6E are representative traces of Iheat recordings from TG neurons pretreated with PRL or vehicle (6D); and plotting Iheat as a function of temperature (FIG. 6E). PRL lowered the activation temperature threshold and increased the magnitude of Iheat. In addition, the magnitude of the Iheat evoked at 43° C. (I43) and 48° C. (I48) points in neurons pretreated with prolactin or vehicle was measured.
Patch Clamp Electrophysiology: All recordings were performed in whole-cell voltage-clamp (Vh=−60 mV) configuration. Recordings were acquired at 22-24° C. from the somata of neurons (15-45 pF) using an Axopatch200B amplifier and pCLAMP9.0 software (Axon Instruments, Union City, Calif.). Data were filtered at 0.5 kHz and sampled at 2 kHz. Borosilicate pipettes (Sutter, Novato, Calif.) were polished to resistances of 3-5 MΩ in pipette solution. Access resistance was compensated (40-80%) to 7-10 MΩ values when appropriate. Cell diameters were calculated using d=√[100*Cm/π], where d (μm) is cell diameter and Cm (pF) is membrane capacitance.
For the recording of heat-activated currents (Iheat), SES was heated on-line by a Peltier device (Warner Instruments, Hamden, Conn.) and locally delivered via a glass tube positioned in close proximity to the neuron. Temperature values were acquired with a thermister probe (0.5-1.5 mm size; Harvard Apparatus, Holliston, Mass.) situated at the orifice of the glass tube for local delivery of heated SES. […]

Another test deals with TRPV1. Put plainly: TRPV1 phosphorylation (32P incorporation, immunoprecipitation). It is filed as cell-based, rat. As to conditions: PRL 40 nM 10 min. On the procedure:
The activity of TRPV1 is dependent upon its phosphorylation status. Hyperphosphorylation of TRPV1 is associated with increased responsiveness to capsaicin (Bhave et al., 2003; Mohapatra and Nau, 2005; Zhang et al., 2005; Mandadi et al., 2006). Since PRL-signaling through PRL-R is known to activate various intracellular kinases pathways, the effect of PRL on TRPV1 phosphorylation status in cultured TG neurons was assessed. Cultured TG neurons were incubated with PRL (40 nM) or vehicle for 10 min in the presence of radioactive phosphate (P^32-orthophosphate). Extracts of the radiolabelled TG cultures were prepared and subjected to immunoprecipated using an antibody that specifically recognizes TRPV1, and the resulting immune complexes were resolved by SDS-PAGE and prepared for immunoblot analysis. The blots were subjected to autoradiography to visualize radiolabelled P^32-TRPV1 and to determine its relative abundance in the presence of PRL. The resolved protein was then immunoblotted using an antibody raised against TRPV1 to ensure that the observed differences in radiolabelled TRPV1 abundance are not due to technical errors (e.g., unequal gel loading). […]
Autoradiography and Western blot results were scanned and quantified using NIH Image 1.62. […]

B1: PRL: Ovine PRL [oPRL-21, BIO] provided by NHPP; prolactin polypeptide hormone (protein, UniProt P01240 31-229, looked up)
Prolactin: TPVCPNGPGNCQVSLRDLFDRAVMVSHYIHNLSSEMFNEFDKRYAQGKGFITMALNSCHTSSLPTPEDKEQAQQTHHEVLMSLILGLLRSWNDPLYHLVTEVRGMKGVPDAILSRAIEIEEENKRLLEGMEMIFGQVIPGAKETEPYPVWSGLPSLQTKDEDARHSAFYNLLHCLRRDSSKIDTYLKLLNCRIIYNNNC
Consider B1, for which the “threshold temperature for Iheat activation” value in the test with TG neurons (PRL 40 nM for 5 min, n=16, vehicle 41.9±0.67) turned out to be 36.8±0.58 °C. For the same molecule, in the test with TG neurons (PRL pretreatment), the “inward currents evoked by 43° C. (I43)” value was “significantly increased” and the “inward currents evoked by 48° C. (I48)” value was “significantly increased”. The TRPV1 phosphorylation status entry in the test with TRPV1 (TG neurons from OVX rats) is listed as “no observable effect”. Also, the “phosphorylation state of TRPV1” value in the test on TRPV1 (neurons from intact female rats) came to 150±13%.
